Columns and labels:
Experiment in all cases: phage ELISA, ligand coated
[1] = target: T1, rat Jagged 1-Fc (R&D Systems Cat #599-JG-100) (rat, UniProt Q63722 34-1067, limits assumed)
T1 construct: Bought reagent; also called rJag1; rJAG1; not shown: Fc part
Text: (§1) Jagged ligands were adsorbed to the wells of a 96-well ELISA plate, each ligand on a separate plate. Phage were applied to correlative wells on each plate and allowed to bind. Bound phage were visualized with an anti-M13-HRP conjugate and developed with the chromogenic substrate TMB. Also shown are the SEQ ID NOs for the each of these isolates.

[2] = target: T2, human Jagged 1-Fc (extracellular domain of human Jagged 1 fused to the Fc portion of human IgG1); R&D Systems … (human, UniProt P78504 34-1067)
T2 construct: extracellular domain; Bought reagent; also called hJag1; h Jagged 1; not shown: Fc portion of human IgG1
Text: as §1

[3] = target: T3, human Jagged 2-Fc (R&D Systems Cat #1726-JG-050) (human, UniProt Q9Y219 27-1080, limits assumed)
T3 construct: Bought reagent; also called hJag2; h Jagged 2; not shown: Fc part
Text: as §1

T3 sequence (Q9Y219 27-1080 limits assumed): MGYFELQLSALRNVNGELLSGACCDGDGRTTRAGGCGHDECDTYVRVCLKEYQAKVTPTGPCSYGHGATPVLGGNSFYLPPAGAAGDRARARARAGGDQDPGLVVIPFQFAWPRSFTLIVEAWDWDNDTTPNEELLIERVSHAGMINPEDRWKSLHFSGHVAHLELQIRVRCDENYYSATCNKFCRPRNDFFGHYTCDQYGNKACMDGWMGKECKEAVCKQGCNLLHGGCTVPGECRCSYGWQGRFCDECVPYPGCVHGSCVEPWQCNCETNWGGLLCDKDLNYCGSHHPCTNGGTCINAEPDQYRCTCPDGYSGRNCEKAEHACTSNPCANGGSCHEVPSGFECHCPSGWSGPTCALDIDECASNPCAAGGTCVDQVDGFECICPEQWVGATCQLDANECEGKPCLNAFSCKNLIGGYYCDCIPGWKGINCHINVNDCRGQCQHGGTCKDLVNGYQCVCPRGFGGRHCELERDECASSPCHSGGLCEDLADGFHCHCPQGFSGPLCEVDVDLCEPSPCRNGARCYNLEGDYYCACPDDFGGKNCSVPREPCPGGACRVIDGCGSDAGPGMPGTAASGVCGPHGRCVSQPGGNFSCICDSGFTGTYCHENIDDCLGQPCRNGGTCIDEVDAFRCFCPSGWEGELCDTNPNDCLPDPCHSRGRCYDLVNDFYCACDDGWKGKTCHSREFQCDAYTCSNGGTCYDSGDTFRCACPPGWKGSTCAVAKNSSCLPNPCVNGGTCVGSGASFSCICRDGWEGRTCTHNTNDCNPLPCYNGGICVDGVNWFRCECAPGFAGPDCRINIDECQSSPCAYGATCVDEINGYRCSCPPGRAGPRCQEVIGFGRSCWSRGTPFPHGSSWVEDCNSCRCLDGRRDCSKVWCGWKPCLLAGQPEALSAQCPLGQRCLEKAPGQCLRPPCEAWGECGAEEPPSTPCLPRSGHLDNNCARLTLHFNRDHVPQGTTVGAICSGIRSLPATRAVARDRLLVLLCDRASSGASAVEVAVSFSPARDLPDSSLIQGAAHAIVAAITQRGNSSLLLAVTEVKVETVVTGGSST

Row | Binder | binding result [1] | binding result [2] | binding result [3]
1 | 346.8 (Fab, V domains shown, also called Lc8/Hc8) VH: EVQLLESGGGLVQPGGSLRLSCAASGFTFSSYAMSWVRQAPGKGLEWVSSIEQMGWQTYYADSVKGRFTISRDNSKNTLYLQMNSLRAEDTAVYYCAKHIGRTNPFDYWGQGTLVTVSS VL: DIQMTQSPSSLSASVGDRVTITCRASQSISSYLNWYQQKPGKAPKLLIYAASSLQSGVPSRFSGSGSGTDFTLTISSLQPEDFATYYCQQSVVAPLTFGQGTKVEIKR | binds | binds | 
2 | 346.24 (Fab, V domains shown, also called Lc24/Hc24) VH: EVQLLESGGGLVQPGGSLRLSCAASGFTFSSYAMSWVRQAPGKGLEWVSSIEEMGWQTLYADSVKGRFTISRDNSKNTLYLQMNSLRAEDTAVYYCAKSAAAFDYWGQGTLVTVSS VL: DIQMTQSPSSLSASVGDRVTITCRASQSISSYLNWYQQKPGKAPKLLIYAASSLQSGVPSRFSGSGSGTDFTLTISSLQPEDFATYYCQQSVVAPLTFGQGTKVEIKR |  | binds | binds

— US20190367589A1 (CYTOMX THERAPEUTICS, published 2019)
